Holding throughout (conditions): both partners purified
Assay [1] addresses RAC1 (aa 1-179) (human, UniProt P63000 1-179). Nature of the assay: stopped-flow fluorescence spectrometry; competition: 4 µM IQGAP1^C794 premixed with 40 µM RAC-binding protein (10-fold molar excess), mixed 1:1 with 0.4 µM RAC1•mGppNHp; 25 °C.
The target of assay [2] is T1, IQGAP1^C794 (C-terminal half of human IQGAP1 with the GRD, RGCT and CT domains) (human, UniProt P46940 863-1657).
T1 sequence (looked up): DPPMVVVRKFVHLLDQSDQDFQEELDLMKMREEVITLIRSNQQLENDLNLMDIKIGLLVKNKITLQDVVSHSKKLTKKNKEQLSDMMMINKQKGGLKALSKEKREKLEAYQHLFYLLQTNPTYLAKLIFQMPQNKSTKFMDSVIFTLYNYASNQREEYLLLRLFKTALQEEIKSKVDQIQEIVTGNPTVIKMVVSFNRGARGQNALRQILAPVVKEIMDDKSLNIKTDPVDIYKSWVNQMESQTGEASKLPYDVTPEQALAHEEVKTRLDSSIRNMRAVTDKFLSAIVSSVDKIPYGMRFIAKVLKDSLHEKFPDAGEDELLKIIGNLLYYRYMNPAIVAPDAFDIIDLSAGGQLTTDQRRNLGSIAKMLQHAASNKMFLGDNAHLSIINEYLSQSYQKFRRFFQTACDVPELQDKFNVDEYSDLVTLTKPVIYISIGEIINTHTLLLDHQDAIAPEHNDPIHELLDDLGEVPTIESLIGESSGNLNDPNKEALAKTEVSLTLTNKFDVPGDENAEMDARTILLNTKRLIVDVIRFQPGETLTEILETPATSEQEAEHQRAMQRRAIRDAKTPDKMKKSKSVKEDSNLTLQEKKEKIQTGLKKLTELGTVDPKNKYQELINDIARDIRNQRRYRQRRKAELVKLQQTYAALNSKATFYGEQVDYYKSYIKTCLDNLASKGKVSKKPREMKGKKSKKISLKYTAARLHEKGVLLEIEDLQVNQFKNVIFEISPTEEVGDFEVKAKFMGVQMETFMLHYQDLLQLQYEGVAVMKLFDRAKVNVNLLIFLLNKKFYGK
As to the kind of experiment: stopped-flow fluorescence spectrometry; kon from 0.2 µM mGppNHp-bound RHO GTPase with 2-8 µM IQGAP1^C794; koff by displacing with 10 µM unlabeled RAC1-GppNHp from 2 µM IQGAP1^C794 with 0.2 µM GTPase; Kd calculated from the rate constants; 25 °C.

The target of assay [3] is T2, IQGAP2^C795 (C-terminal fragment of IQGAP2) (human, UniProt Q13576 780-1575).
T2 construct: IQGAP2, aa 780-1575; also called IQGAP2^C975
T2 sequence (looked up): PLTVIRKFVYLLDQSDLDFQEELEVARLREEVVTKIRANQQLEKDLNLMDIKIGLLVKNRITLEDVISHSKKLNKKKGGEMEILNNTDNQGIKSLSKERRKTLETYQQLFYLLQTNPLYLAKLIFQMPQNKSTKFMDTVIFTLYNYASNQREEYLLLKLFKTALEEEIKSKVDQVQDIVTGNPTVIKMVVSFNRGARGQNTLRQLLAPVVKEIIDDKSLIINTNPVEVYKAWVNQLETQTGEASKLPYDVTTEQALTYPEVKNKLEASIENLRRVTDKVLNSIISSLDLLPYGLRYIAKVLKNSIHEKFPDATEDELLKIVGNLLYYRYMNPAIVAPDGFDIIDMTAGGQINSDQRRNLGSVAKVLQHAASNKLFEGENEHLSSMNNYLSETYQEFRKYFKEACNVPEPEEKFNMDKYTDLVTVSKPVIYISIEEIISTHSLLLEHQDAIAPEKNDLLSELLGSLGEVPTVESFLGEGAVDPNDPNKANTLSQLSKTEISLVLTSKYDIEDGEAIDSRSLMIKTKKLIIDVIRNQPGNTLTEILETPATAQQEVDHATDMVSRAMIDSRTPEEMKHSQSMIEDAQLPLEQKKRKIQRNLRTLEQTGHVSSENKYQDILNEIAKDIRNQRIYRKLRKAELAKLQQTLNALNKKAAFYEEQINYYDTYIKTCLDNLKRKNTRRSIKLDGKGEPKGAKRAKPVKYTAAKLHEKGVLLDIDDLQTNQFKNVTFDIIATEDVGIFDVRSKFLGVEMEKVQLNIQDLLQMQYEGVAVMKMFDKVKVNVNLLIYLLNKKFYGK
Nature of the assay: stopped-flow fluorescence spectrometry; association (kobs): 2 µM IQGAP1^C794 or IQGAP2^C795 mixed with 0.2 µM mGppNHp-bound RHO GTPase; 30 mM Tris-HCl pH 7.5, 10 mM K2HPO4/KH2PO4 pH 7.4, 2 mM MgCl2, 3 mM DTT, 25 °C.

In assay [4] the target is CDC42^Q61L•GppNHp (human, UniProt P60953 1-178, Q61L). Nature of the assay: SEC; analytical SEC of IQGAP1 GRD with CDC42^Q61L•GppNHp or CDC42^WT•GppNHp.
Sequence of CDC42^Q61L•GppNHp (P60953 1-178 Q61L): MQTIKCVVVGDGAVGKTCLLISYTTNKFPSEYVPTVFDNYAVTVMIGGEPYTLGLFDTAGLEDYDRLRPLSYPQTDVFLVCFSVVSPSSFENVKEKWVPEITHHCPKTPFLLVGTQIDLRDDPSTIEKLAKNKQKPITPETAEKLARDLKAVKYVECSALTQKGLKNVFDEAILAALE
The target of assay [5] is CDC42 (aa 1-178) (human, UniProt P60953 1-178). The description is as above.
Sequence of CDC42 (aa 1-178) (P60953 1-178): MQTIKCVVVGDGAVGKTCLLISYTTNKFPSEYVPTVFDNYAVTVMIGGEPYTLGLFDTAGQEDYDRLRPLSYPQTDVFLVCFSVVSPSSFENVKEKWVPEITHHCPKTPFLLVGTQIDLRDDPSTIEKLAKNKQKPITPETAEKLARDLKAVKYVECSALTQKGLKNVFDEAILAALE

As usually defined, the stoichiometry N is a count of units in the complex or per binding partner.

B1: PAK1 GBD (GTPase-binding domain of PAK1) (domain or fragment)
chain: SILPGDKTNKKKEKERPEISLPSDFEHTIHVGFDAVTGEFTGMPEQWARLLQTSNITKSEQKKNPQAVLDVLEFYNSKKTSNSQK
With B1, the binding result in assay [1] was “binds”.

B2: p50^GAP (GAP domain) (domain or fragment)
chain: HVKLEQLGIPRQVLKYDDFLKSTQKSPATAPKPMPPRPPLPNQQFGVSLQHLQEKNPEQEPIPIVLRETVAYLQAHALTTEGIFRRSANTQVVREVQQKYNMGLPVDFDQYNELHLPAVILKTFLRELPEPLLTFDLYPHVVGFLNIDESQRVPATLQVLQTLPEENYQVLRFLTAFLVQISAHSDQNKMTNTNLAVVFGPNLLWAKDAAITLKAINPINTFTKFLLDHQGELFPSPDPSGL
As for B2, the binding result in assay [1] is listed as “binds”.

B3: DOCK2 DHR2 (DOCK homology region 2 domain of DOCK2) (domain or fragment)
chain: YKDNNREEMYIRYLYKLRDLHLDCDNYTEAAYTLLLHTWLLKWSDEQCASQVMQTGQQHPQTHRQLKETLYETIIGYFDKGKMWEEAISLCKELAEQYEMEIFDYELLSQNLIQQAKFYESIMKILRPKPDYFAVGYYGQGFPSFLRNKVFIYRGKEYERREDFQMQLMTQFPNAEKMNTTSAPGDDVKNAPGQYIQCFTVQPVLDEHPRFKNKPVPDQIINFYKSNYVQRFHYSRPVRRGTVDPENEFASMWIERTSFVTAYKLPGILRWFEVVHMSQTTISPLENAIETMSTANEKILMMINQYQSDETLPINPLSMLLNGIVDPAVMGGFAKYEKAFFTEEYVRDHPEDQDKLTHLKDLIAWQIPFLGAGIKIHEKRVSDNLRPFHDRMEECFKNLKMKVEKEYGVREMPD
notes: human DOCK2 DHR2 domain, aa 1211-1624; also called DOCK DHR2; source: pOPIN vector, purified; the methods say all proteins except IQGAP2^C795 were isolated as GST fusions with GST cleaved
In the case of B3, the binding result in assay [1] is “binds”.

B4: CDC42 V85D/S88D (natural protein)
chain: not shown
Take B4: in assay [2], the binding result is “binds”.

B5: RHOG (aa 1-178) (natural protein)
chain: not shown
On to B5, for which the binding result in assay [2] and in assay [3] was “binds” throughout.

B6: CDC42 Q74D (natural protein)
chain: not shown
As for B6, in assay [2], the binding result was “binds”.

B7: IQGAP1^GRD (RASGAP-related domain of IQGAP1) (domain or fragment, human, UniProt P46940 962-1345, looked up)
chain: SKEKREKLEAYQHLFYLLQTNPTYLAKLIFQMPQNKSTKFMDSVIFTLYNYASNQREEYLLLRLFKTALQEEIKSKVDQIQEIVTGNPTVIKMVVSFNRGARGQNALRQILAPVVKEIMDDKSLNIKTDPVDIYKSWVNQMESQTGEASKLPYDVTPEQALAHEEVKTRLDSSIRNMRAVTDKFLSAIVSSVDKIPYGMRFIAKVLKDSLHEKFPDAGEDELLKIIGNLLYYRYMNPAIVAPDAFDIIDLSAGGQLTTDQRRNLGSIAKMLQHAASNKMFLGDNAHLSIINEYLSQSYQKFRRFFQTACDVPELQDKFNVDEYSDLVTLTKPVIYISIGEIINTHTLLLDHQDAIAPEHNDPIHELLDDLGEVPTIESLIGESS
Turning to B7, the “stoichiometry N” value was 2 CDC42^Q61L per GRD (printed as 2:1; order taken from p-0007) in assay [4] and 1 GRD per CDC42 (printed as 2:2) in assay [5].

B8: RHOA-to-RAC1 variant (RHOA K27T, D28N, E47M, E54N, D76Q) (natural protein)
chain: not shown
With B8, the binding result in assay [2] is listed as “binds”.

B9: CDC42 T25K/N26D (natural protein)
chain: not shown
With B9, in assay [2], the binding result was “binds”.
